# Source: IntAct's records for PubMed 35512704
# B1: Speckle-type POZ protein (Homo sapiens), O43791 (parent)
# chain: MSRVPSPPPPAEMSSGPVAESWCYTQIKVVKFSYMWTINNFSFCREEMGEVIKSSTFSSGANDKLKWCLRVNPKGLDEESKDYLSLYLLLVSCPKSEVRAKFKFSILNAKGEETKAMESQRAYRFVQGKDWGFKKFIRRDFLLDEANGLLPDDKLTLFCEVSVVQDSVNISGQNTMNMVKVPECRLADELGGLWENSRFTDCCLCVAGQEFQAHKAILAARSPVFSAMFEHEMEESKKNRVEINDVEPEVFKEMMCFIYTGKAPNLDKMADDLLAAADKYALERLKVMCEDALCSNLSVENAAEILILADLHSADQLKTQAVDFINYHASDVLETSGWKSMVVSHPHLVAEAYRSLASAQCPFLGPPRKRLKQS
# partner: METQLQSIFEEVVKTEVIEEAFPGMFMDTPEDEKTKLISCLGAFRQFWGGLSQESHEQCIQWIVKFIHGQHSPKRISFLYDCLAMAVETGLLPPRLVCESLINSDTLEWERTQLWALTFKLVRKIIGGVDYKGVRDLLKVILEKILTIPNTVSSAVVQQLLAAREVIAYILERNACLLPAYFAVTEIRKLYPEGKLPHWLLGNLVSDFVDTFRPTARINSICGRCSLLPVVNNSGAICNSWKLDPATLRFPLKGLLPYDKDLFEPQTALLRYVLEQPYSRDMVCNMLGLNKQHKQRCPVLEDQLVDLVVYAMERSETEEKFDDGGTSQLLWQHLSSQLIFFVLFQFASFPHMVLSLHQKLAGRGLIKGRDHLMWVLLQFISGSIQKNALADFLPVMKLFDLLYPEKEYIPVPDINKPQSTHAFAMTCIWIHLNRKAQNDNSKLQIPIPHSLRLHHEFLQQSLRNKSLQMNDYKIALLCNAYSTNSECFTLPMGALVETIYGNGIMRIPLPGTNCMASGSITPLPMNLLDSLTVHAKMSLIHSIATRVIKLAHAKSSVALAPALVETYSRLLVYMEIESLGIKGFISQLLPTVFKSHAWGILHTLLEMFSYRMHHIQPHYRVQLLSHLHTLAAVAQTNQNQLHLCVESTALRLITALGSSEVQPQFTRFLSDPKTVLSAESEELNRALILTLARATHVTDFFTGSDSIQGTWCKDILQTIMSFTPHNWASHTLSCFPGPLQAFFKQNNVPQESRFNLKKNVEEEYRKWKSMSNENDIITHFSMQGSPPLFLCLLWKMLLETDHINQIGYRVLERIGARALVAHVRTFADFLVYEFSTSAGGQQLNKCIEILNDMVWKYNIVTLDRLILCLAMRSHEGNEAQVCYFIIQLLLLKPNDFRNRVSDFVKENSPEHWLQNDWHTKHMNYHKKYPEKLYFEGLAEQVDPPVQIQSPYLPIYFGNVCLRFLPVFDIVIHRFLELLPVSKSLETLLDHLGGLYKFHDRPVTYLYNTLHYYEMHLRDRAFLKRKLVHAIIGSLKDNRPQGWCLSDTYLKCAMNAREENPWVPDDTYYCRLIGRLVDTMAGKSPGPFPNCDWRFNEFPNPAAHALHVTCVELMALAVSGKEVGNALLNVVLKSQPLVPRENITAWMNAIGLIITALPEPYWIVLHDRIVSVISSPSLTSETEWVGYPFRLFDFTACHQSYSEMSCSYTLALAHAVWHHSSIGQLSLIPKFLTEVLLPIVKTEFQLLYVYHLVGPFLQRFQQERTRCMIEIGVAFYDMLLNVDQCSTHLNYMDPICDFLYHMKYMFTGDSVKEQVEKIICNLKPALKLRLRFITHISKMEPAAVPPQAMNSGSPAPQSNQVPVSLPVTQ
# B2: Speckle-type POZ protein (Homo sapiens), O43791 (parent)
# chain: B1 chain
# partner: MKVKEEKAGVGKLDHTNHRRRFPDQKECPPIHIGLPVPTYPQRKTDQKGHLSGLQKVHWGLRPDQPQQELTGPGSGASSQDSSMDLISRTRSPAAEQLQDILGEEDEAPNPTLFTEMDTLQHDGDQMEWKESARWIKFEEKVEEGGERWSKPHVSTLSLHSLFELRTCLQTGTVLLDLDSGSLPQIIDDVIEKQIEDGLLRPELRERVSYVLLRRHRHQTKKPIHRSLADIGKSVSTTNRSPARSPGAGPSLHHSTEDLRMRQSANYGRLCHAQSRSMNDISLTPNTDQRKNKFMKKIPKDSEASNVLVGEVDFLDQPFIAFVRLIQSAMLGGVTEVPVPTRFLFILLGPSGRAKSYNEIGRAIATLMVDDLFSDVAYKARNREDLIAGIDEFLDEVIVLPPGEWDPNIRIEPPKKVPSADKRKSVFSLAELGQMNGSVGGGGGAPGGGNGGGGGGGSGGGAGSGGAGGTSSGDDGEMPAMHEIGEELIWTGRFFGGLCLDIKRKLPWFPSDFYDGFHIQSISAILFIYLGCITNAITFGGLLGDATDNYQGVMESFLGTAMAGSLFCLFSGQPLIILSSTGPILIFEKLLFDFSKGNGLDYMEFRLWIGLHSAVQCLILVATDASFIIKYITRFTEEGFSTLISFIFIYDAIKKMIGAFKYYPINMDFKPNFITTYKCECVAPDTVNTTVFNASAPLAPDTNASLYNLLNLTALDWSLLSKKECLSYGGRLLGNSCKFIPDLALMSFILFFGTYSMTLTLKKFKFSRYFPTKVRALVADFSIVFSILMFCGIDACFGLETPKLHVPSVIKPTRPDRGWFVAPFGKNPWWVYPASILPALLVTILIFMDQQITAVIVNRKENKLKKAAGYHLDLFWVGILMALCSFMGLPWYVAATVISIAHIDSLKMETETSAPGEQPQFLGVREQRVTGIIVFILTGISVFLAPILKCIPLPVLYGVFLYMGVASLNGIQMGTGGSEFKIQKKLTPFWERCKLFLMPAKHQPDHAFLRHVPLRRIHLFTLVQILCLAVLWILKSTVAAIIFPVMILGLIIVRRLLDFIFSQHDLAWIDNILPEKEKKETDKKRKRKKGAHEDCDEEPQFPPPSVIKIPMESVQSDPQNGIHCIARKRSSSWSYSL
# B3: Speckle-type POZ protein (Homo sapiens), O43791 (parent)
# chain: B1 chain
# partner: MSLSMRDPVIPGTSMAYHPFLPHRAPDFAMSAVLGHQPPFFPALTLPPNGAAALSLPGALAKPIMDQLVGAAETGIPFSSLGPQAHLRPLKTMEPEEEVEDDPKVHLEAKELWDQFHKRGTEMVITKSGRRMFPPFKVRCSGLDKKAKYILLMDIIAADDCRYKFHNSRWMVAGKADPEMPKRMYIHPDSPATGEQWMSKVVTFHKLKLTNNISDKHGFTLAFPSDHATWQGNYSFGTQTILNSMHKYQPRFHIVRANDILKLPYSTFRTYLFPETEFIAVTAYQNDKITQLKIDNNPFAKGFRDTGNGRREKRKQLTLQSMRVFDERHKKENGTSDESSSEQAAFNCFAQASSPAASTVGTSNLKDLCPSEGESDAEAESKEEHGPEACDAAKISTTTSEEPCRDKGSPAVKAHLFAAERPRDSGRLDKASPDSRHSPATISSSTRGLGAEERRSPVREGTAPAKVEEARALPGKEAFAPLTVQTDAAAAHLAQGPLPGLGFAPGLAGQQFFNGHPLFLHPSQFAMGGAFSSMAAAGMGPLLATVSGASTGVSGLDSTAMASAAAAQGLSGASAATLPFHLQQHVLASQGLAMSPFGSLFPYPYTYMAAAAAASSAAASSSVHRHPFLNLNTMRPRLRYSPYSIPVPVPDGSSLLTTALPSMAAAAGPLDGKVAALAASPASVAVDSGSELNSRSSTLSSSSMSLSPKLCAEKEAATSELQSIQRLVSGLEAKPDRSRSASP
# B4: Speckle-type POZ protein (Homo sapiens), O43791 (parent)
# chain: B1 chain
# partner: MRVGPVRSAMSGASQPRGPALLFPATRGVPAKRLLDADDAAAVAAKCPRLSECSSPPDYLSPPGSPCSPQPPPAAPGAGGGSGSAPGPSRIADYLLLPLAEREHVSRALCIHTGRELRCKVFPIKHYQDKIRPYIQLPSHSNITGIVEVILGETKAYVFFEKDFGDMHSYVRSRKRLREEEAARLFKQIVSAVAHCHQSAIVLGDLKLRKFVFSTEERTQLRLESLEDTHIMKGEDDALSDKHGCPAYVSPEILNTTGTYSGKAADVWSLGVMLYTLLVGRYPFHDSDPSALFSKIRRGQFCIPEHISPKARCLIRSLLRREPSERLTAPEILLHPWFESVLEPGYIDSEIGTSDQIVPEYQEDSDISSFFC
# B5: Speckle-type POZ protein (Homo sapiens), O43791 (parent)
# chain: B1 chain
# partner: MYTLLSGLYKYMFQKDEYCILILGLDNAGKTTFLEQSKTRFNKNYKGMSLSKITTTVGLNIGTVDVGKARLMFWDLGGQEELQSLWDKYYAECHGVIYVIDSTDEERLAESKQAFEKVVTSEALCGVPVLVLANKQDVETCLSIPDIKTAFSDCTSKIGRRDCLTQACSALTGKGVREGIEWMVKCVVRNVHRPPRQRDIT
# B6: Speckle-type POZ protein (Homo sapiens), O43791 (parent)
# chain: B1 chain
# partner: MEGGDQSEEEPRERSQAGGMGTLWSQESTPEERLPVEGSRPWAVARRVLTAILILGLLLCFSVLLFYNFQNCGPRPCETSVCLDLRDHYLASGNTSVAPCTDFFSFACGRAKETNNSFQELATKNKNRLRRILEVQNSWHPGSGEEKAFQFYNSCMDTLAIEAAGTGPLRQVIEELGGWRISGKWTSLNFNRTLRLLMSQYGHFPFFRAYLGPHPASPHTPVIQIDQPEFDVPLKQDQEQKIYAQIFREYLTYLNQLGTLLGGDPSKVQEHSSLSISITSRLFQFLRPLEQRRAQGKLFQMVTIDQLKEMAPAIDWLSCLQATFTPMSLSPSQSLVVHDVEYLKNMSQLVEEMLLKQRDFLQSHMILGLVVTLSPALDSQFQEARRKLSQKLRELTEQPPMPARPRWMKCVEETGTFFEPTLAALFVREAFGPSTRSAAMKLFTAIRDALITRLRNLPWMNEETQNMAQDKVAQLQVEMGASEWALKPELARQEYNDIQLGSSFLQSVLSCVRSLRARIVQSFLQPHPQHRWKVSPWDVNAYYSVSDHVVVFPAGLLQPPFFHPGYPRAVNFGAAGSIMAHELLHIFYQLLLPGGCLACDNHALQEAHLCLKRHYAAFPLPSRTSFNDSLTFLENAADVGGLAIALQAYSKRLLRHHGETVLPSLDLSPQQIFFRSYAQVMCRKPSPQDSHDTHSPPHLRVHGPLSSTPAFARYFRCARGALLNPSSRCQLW
# Variants of: B1
# Conditions: with med23_human MED23, Q9ULK4
row,effect of a mutation on the interaction,Variant
1,with no effect,F133V

# Variants of: B1
# Conditions: with med23_human MED23, Q9ULK4
# Remark: another data set of the same source
row,effect of a mutation on the interaction,Variant
1,with no effect,F133L

# Variants of: B2
# Conditions: with s4a5_human SLC4A5, Q9BY07
row,effect of a mutation on the interaction,Variant
1,with no effect,Y87C

# Variants of: B2
# Conditions: with s4a5_human SLC4A5, Q9BY07
# Remark: another data set of the same source
row,effect of a mutation on the interaction,Variant
1,with no effect,F102C

# Variants of: B2
# Conditions: with s4a5_human SLC4A5, Q9BY07
# Remark: another data set of the same source
row,effect of a mutation on the interaction,Variant
1,with no effect,F133V

# Variants of: B2
# Conditions: with s4a5_human SLC4A5, Q9BY07
# Remark: another data set of the same source
row,effect of a mutation on the interaction,Variant
1,with no effect,F133L

# Variants of: B3
# Conditions: with tbx3_human TBX3, O15119
row,effect of a mutation on the interaction,Variant
1,with no effect,F133L

# Variants of: B3
# Conditions: with tbx3_human TBX3, O15119
# Remark: another data set of the same source
row,effect of a mutation on the interaction,Variant
1,with no effect,F133V

# Variants of: B3
# Conditions: with tbx3_human TBX3, O15119
# Remark: another data set of the same source
row,effect of a mutation on the interaction,Variant
1,with no effect,Y87C

# Variants of: B3
# Conditions: with tbx3_human TBX3, O15119
# Remark: another data set of the same source
row,effect of a mutation on the interaction,Variant
1,with no effect,F102C

# Variants of: B4
# Conditions: with trib1_human TRIB1, Q96RU8
row,effect of a mutation on the interaction,Variant
1,causing an interaction,F133V

# Variants of: B4
# Conditions: with trib1_human TRIB1, Q96RU8
# Remark: another data set of the same source
row,effect of a mutation on the interaction,Variant
1,causing an interaction,F133L

# Variants of: B4
# Conditions: with trib1_human TRIB1, Q96RU8
# Remark: another data set of the same source
row,effect of a mutation on the interaction,Variant
1,with no effect,Y87C

# Variants of: B4
# Conditions: with trib1_human TRIB1, Q96RU8
# Remark: another data set of the same source
row,effect of a mutation on the interaction,Variant
1,with no effect,F102C

# Variants of: B5
# Conditions: with arfrp_human ARFRP1, Q13795
row,effect of a mutation on the interaction,Variant
1,with no effect,Y87C

# Variants of: B6
# Conditions: with kell_human KEL
row,effect of a mutation on the interaction,Variant
1,with no effect,F133V
